{"source": "patent US12454527B2", "about": "“Conjugate monomethyl auristatin E to obtain a composition for treatment of prostate cancer” (priority 2019, dated 2025)", "assay_type_in_all_cases": "in vivo", "key": {"[1]": {"assay": "Acute toxicity study, single intravenous administration, rats", "settings": "for Signs of intoxication: rats; for Signs of intoxication / Body weight dynamics in % of initial body weight, Day 5 (individual animals) / Body weight dynamics in % of initial body weight, Day 10 (individual animals) / Body weight dynamics in % of initial body weight, Day 14 (individual animals): listed as test drug; for Body weight dynamics in % of initial body weight, Day 5, M ± SD / Body weight dynamics in % of initial body weight, Day 5 (individual animals) / Body weight dynamics in % of initial body weight, Day 10, M ± SD / Body weight dynamics in % of initial body weight, Day 10 (individual animals) / Body weight dynamics in % of initial body weight, Day 14, M ± SD / Body weight dynamics in % of initial body weight, Day 14 (individual animals): single administration; for Body weight dynamics in % of initial body weight, Day 5, M ± SD: Day 5, group mean; for Body weight dynamics in % of initial body weight, Day 10, M ± SD: Day 10, group mean; for Body weight dynamics in % of initial body weight, Day 14, M ± SD: Day 14, group mean", "description": "Acute toxicity study of Conjugate (I) product on mice and rats.\n• 1. Conjugate (I). • 2. Solubilizer Pluronic F127—in the amount, five-fold greater than the conjugate amount by weight. • 3. Diluent Haemodes infusion solution. • 4. Dimethyl sulfoxide—in the amount of 5% of the prepared volume.\nThe experiment took white outbred male mice aged about 2 months with body weight of 19-21,g, and also white outbred mature male rats aged about 2 months with body weight 190-210 g.\nAcute toxicity study was performed within the intravenous administration. Before the start of the experiment to determine an acute toxicity, the animals were deprived of food and water (mice were deprived for 2 hours, rats—for 10-12 hours), and then weighed. Then each animal received the intravenous drug injection according to the study design, in a volume not exceeding the acceptable single injection volume: 0.5 mL for mice, 2 mL for rats, and fractionally if necessary. The control group of animals received Pluronic solution in Haemodes in the proportion used fort dose preparation of 78 mg/kg for mice and 38 mg/kg for rats. The duration of observation for laboratory animals was 14 days. During this period, visible signs of intoxication were assessed (see Table 9)."}, "[2]": {"assay": "Chronic toxicity study, intravenous once every 3 weeks, rabbits", "description": "Chronic toxicity study of Conjugate (1) product on Rats and rabbits.\n• 1. Conjugate (I). • 2. Solubilizer Pluronic F127—in the amount, five-fold greater than the conjugate amount by weight. • 3. Diluent—Haemodes infusion solution. • 4. Dimethyl sulfoxide—in the amount of 5% of the prepared volume.\nA 1 00 white ° inbred mature male rats about 2 months old with a body weight of 190-210 g and 60 sexually mature male rabbits of the Soviet Chinchilla breed about 2 months old with a body weight of […] were involved in the experiment.\nThe study design determined the intravenous administration of the test drugs once every 3 weeks for 3 months (a total of 4 injections) for the experiment of chronic toxicity determination. The local irritant effect of the products within intravenous administration will be studied together with the chronic toxicity study.\nEach animal received the intravenous injection of the test drug or the reference drug in a volume not exceeding the acceptable volume for a single injection of 2 mL for rats and 20 mL for rabbits. The products were replaced with a Pluronic solution with DMSO in Haemodes in the control group of animals. The duration of observation for laboratory animals was 4 weeks (intermediate stage).\nApparent signs of intoxication were evaluated daily. During the study, integral indicators of animal health were recorded (see Tables 15. 16, 17)."}, "[3]": {"assay": "Body weight of mice in lymphoid leukosis P388 model", "experimental": "Lymphoid Leukosis P388 (male mice BDF1)—observation was held for 30 days since the first product administration (the product administration was started 24 hours after revaccination) and it was administered 3 times intraperitoneally in a day.\n• 1. Group 1—tumor growth control (TGC) • 2. Group 2—placebo (diluent) • 3. Group 3—intraperitoneal Conjugate (I) administration in a dose of 0.5 mg/kg 3 times; • 4. Group 4—intraperitoneal Conjugate (I) administration in a dose of 1.0 mg/kg 3 times:\nExperimental animals of control group (TGC) were administered with 0.9% saline, the placebo group was injected with the diluent (DMSO+Haemodes) of similar volume. The antineoplastic activity was determined according to mice lifespan."}, "[4]": {"settings": "3 mg/kg, group 11, males, 3 mg/kg"}, "[5]": {"settings": "4 mg/kg, group 12, males, 4 mg/kg"}, "[6]": {"settings": "male rabbits, group 7, 81 μg/kg intravenously 1 time in 3 weeks"}, "[7]": {"settings": "male rabbits, group 8, 102 μg/kg intravenously 1 time in 3 weeks"}}, "note": "Several values for one entry are separate records, joined by “and”; a condition that tells them apart may be missing. Equal values may be shown once. Entries after “also recorded” stand apart in the source; their conditions may differ. Starred links: 1 amine or outer side, 2 acyl side, 3 side chain; linkers in the order of their positions; H or OH if unused. Non-standard residues stand in square brackets, D forms with d. Residues, ends and D or L forms follow the SMILES beside them. ξ: configuration not given here. *: point of attachment. GluureaLys(ε-3-ClBenzyl) = O=C(O)CC[C@H](NC(=O)N[C@@H](CCCCN(Cc1cccc(Cl)c1)*)C(=O)O)C(=O)O; Dolaproine = CO[C@@H]([C@@H]1CCCN1)[C@@H](C)C(=O)O; Dil = CC[C@H](C)[C@H](NC)[C@@H](CC(=O)O)OC; X1 = O=C(CCCc1cn(CCCN[*:1])nn1)[*:2]; PABC = O=C(OCc1ccc(N[*:1])cc1)[*:2]; X2 = C[C@@H](N*)[C@@H](O)c1ccccc1; Cit = NC(=O)NCCC[C@H](N)C(=O)O; Suc = O=C(CCC(=O)[*:2])[*:1]; NMeV = CN[C@H](C(=O)O)C(C)C; ξV = CC(C)C(N)C(=O)O; Ahx = NCCCCCC(=O)O", "data": [{"smiles": "CC[C@H](C)[C@@H]([C@@H](CC(=O)N1CCC[C@H]1[C@H](OC)[C@@H](C)C(=O)N[C@H](C)[C@@H](O)c1ccccc1)OC)N(C)C(=O)[C@@H](NC(=O)[C@H](C(C)C)N(C)C(=O)OCc1ccc(NC(=O)[C@H](CCCNC(N)=O)NC(=O)C(NC(=O)CCCc2cn(CCCNC(=O)[C@H](Cc3ccc(O)cc3)NC(=O)[C@H](Cc3ccccc3)NC(=O)CCC(=O)NCCCCCC(=O)N(CCCC[C@H](NC(=O)N[C@@H](CCC(=O)O)C(=O)O)C(=O)O)Cc3cccc(Cl)c3)nn2)C(C)C)cc1)C(C)C", "note": "(stereo partly shown) [Conjugate (I)] ({GluureaLys(ε-3-ClBenzyl)-Ahx-Suc}-FY[X1][ξV][Cit][PABC][NMeV]V[Dil][Dolaproine]-X2)", "values": [{"measurement": "Signs of intoxication", "setting": "[1]; single i.v. 5.1 mg/kg, 5.1 mg/kg", "value": "Decreased mot. activity - 5-40 minutes; also recorded: Shortness of breath - 1-60 minutes; also recorded: Days 1-2 - all animals had diarrhea,; also recorded: Death cases occurred in 2 days (2), 4"}, {"measurement": "Signs of intoxication", "setting": "[1]; single i.v. 5.4 mg/kg, 5.4 mg/kg", "value": "Decreased mot. activity - 5-40 minutes; also recorded: Shortness of breath - 1-60 minutes; also recorded: Days 1-2 - all animals had diarrhea,; also recorded: No standard achieved; also recorded: Two animals had the hindlimb paresis"}, {"measurement": "Signs of intoxication", "setting": "[1]; single i.v. 6 mg/kg, 6 mg/kg", "value": "on Day 2 - all animals showed diarrhea"}, {"measurement": "Signs of intoxication", "setting": "[1]; single i.v. 8 mg/kg, 8 mg/kg", "value": "diarrhea, general starvation, adynamia"}, {"measurement": "Body weight dynamics in % of initial body weight, Day 5, M ± SD", "setting": "[1]; 3 mg/kg, group 11, males", "value": "−0.2 ± 7.1", "unit": "%"}, {"measurement": "Body weight dynamics in % of initial body weight, Day 5 (individual animals)", "setting": "[1]; [4]", "value": "−1.5% and −11.2% and −5.1% and 10.8% and −9.4% and 5.5% and 1.4% and −2.4% and 2.0% and 7.6%"}, {"measurement": "Body weight dynamics in % of initial body weight, Day 10, M ± SD", "setting": "[1]; 3 mg/kg, group 11, males", "value": "17.2 ± 6.1", "unit": "%"}, {"measurement": "Body weight dynamics in % of initial body weight, Day 10 (individual animals)", "setting": "[1]; [4]", "value": "17.3% and 5.9% and 16.4% and 25.1% and 11.4% and 20.1% and 19.7% and 17.1% and 13.2% and 26.1%"}, {"measurement": "Body weight dynamics in % of initial body weight, Day 14, M ± SD", "setting": "[1]; 3 mg/kg, group 11, males", "value": "22.8 ± 6.0", "unit": "%"}, {"measurement": "Body weight dynamics in % of initial body weight, Day 14 (individual animals)", "setting": "[1]; [4]", "value": "20.8% and 10.1% and 20.0% and 29.1% and 16.8% and 27.1% and 26.4% and 23.8% and 24.9% and 29.4%"}, {"measurement": "Body weight dynamics in % of initial body weight, Day 5, M ± SD", "setting": "[1]; 4 mg/kg, group 12, males", "value": "−7.7 ± 7.6", "unit": "%"}, {"measurement": "Body weight dynamics in % of initial body weight, Day 5 (individual animals)", "setting": "[1]; [5]", "value": "6.1% and −15.2% and −5.9% and 0.0% and −3.0% and −4.1% and −13.7% and −17.1% and −9.2% and −14.4%"}, {"measurement": "Body weight dynamics in % of initial body weight, Day 10, M ± SD", "setting": "[1]; 4 mg/kg, group 12, males", "value": "11.0 ± 11.5", "unit": "%"}, {"measurement": "Body weight dynamics in % of initial body weight, Day 10 (individual animals)", "setting": "[1]; [5]", "value": "25.5% and 2.5% and 16.3% (2×) and 22.2% and 19.1% and 5.9% and −10.5% and 14.5% and −1.9%"}, {"measurement": "Body weight dynamics in % of initial body weight, Day 14, M ± SD", "setting": "[1]; 4 mg/kg, group 12, males", "value": "20.1 ± 12.1", "unit": "%"}, {"measurement": "Body weight dynamics in % of initial body weight, Day 14 (individual animals)", "setting": "[1]; [5]", "value": "35.2% and 11.7% and 24.6% and 31.7% and 28.1% (2×) and 18.0% and 1.0% (2×) and 21.7%"}, {"measurement": "LD50 at 14 days", "setting": "[1]; white outbred, rat, in vivo, iv, male rats, single i.v., read-out: LD50 (median lethal dose)", "value": 4.9, "unit": "mg/kg"}, {"measurement": "Necropsy", "setting": "[2]; [6]", "value": "None"}, {"measurement": "Signs of intoxication", "setting": "[2]; [6]", "value": "No signs of intoxication"}, {"measurement": "Necropsy", "setting": "[2]; [7]", "value": "None"}, {"measurement": "Signs of intoxication", "setting": "[2]; [7]", "value": "No signs of intoxication"}, {"measurement": "Necropsy", "setting": "[2]; male rabbits, group 9, 122 μg/kg intravenously 1 time in 3 weeks", "value": "None"}, {"measurement": "Signs of intoxication: the intake of food and water", "setting": "[2]; male rabbits, group 9, 122 μg/kg, after administration", "value": "decreased."}, {"measurement": "Main observed toxic effect", "setting": "[2]; rabbits, chronic", "value": "decreased body weight gain"}, {"measurement": "Chronic toxicity (overall)", "setting": "[2]; rabbits, i.v. once every 3 weeks, intermediate stage 4 weeks", "value": "moderate toxicity"}, {"measurement": "Body weight of mice", "setting": "[3]; 0.5 mg/kg, day 0, in g (unit assumed)", "value": "19.9 ± 0.36"}, {"measurement": "Body weight of mice", "setting": "[3]; 0.5 mg/kg, day 2, in g (unit assumed)", "value": "19.2 ± 0.28"}, {"measurement": "Body weight of mice", "setting": "[3]; 0.5 mg/kg, day 4, in g (unit assumed)", "value": "19.2 ± 0.32"}, {"measurement": "Body weight of mice", "setting": "[3]; 1.0 mg/kg, day 0, in g (unit assumed)", "value": "19.7 ± 0.36"}, {"measurement": "Body weight of mice", "setting": "[3]; 1.0 mg/kg, day 2, in g (unit assumed)", "value": "19.7 ± 0.48"}, {"measurement": "Body weight of mice", "setting": "[3]; 1.0 mg/kg, day 4, in g (unit assumed)", "value": "19.7 ± 0.42"}]}]}
